Article PMC6177440, “Overlapping motifs on the herpes viral proteins ICP27 and ORF57 mediate interactions with the mRNA export adaptors ALYREF and UIF” (Scientific Reports, 2018)

T1: UIF N-terminal region (residues 1-190), recombinant (human, UniProt Q96QD9 1-190)
T1 construct: UIF, homo sapiens, Uniprot Q96QD9, residues 1-190, in pET-15b; source: T7 express E. coli, purified (TALON resin, size exclusion chromatography)
T1 sequence (looked up): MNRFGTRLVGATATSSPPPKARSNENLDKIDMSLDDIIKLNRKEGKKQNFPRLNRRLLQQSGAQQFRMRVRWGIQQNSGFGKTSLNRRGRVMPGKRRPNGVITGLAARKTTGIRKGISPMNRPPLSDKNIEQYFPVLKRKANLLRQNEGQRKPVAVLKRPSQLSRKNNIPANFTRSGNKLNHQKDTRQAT

T2: KSHV ORF57 residues 153-455 (KSHV, UniProt Q2HR75 153-455)
T2 construct: ORF57 of Kaposi sarcoma herpes virus (KSHV), residues 153-455, in pET-21a; The strep-II-tag and HRV-3C site lay between thioredoxin and ORF57; also called ksORF57Δ153; ORF57Δ153; source: T7 express E. coli, purified (strep-tag resin, HRV-3C cleavage, size exclusion chromatography); not shown: thioredoxin, N-terminal, cleaved; strep-II, N-terminal, cleaved
T2 sequence: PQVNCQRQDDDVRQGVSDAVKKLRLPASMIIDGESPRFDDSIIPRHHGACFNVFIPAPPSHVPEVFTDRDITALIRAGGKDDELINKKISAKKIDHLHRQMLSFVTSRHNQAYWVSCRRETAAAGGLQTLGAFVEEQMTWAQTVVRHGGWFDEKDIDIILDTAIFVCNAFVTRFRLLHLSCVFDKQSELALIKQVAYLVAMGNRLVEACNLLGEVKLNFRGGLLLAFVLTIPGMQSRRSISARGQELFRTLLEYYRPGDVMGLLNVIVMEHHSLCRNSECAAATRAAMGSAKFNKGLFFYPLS

B1: REF2-I (murine variant of ALYREF) residues 1-155 (domain or fragment)
chain: not shown
notes: Used 15N labelled or unlabelled; source: purified

Tests used:
Conditions in all cases: both partners purified
[1] = target: T1, UIF N-terminal region (residues 1-190), …; assay: NMR titration; 15N HSQC of the 15N labelled protein (target) without and with an equimolar amount of the unlabelled partner (binder); ca. 50 µM; 20 mM sodium phosphate, 50 mM NaCl, 50 mM L-Arg, 50 mM L-Glu, 1 mM EDTA, 2 mM TCEP, pH 6.2; 298 K
[2] = target: B1; assay: as above
[3] = target: T2, KSHV ORF57 residues 153-455; assay: NMR titration; 15N HSQC of the 15N labelled REF2-I construct (target) without and with unlabelled ICP27Δ241 or ksORF57Δ153 (binder); ca. 50 µM; NMR buffer with EDTA decreased to 0.1 mM, pH 6.2; 298 K

Binder	binding result [1]	binding result [2]	binding result [3]
HSV-1 ICP27 residues 103-155 (domain or fragment, ICP27 of HSV-1, residues 103-155; Used 15N labelled; also called ICP27^103–155; source: purified) SVWSRLGARRPSCSPEQHGGKVARLQPPPTKAQPARGGRRGRRRGRGRGGPGA	binds	binds	
B1			binds
KSHV ORF57 residues 68-178 (domain or fragment, ORF57 of Kaposi sarcoma herpes virus (KSHV), residues 68-178, in pET-15b; Used 15N labelled or unlabelled; also called ksORF57^68–178) GRIPKKSQGRSQLRSEIQFCSPLSRPRSPSPVNRYGKKIKFGTAGQNTRPPPEKRPRRRPRDRLQYGRTTRGGQCRAAPKRATRRPQVNCQRQDDDVRQGVSDAVKKLRLP	binds	binds	
